The values that follow come from patent US20210403578A1 (Stanford University, published 2021).

For the assay, the target named is T1, Fz8-CRD (UniProt Q9H461 32-151, limits assumed, fluorescence-conjugated).
T1 construct: domain: CRD; also called Fzd8-CRD; frizzled (Fz8-CRD)
T1 sequence (looked up): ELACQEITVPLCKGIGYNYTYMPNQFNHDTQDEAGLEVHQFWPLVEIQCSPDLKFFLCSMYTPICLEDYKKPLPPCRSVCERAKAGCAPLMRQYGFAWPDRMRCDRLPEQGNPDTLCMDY
The assay is described as follows: yeast surface display with fluorescence-conjugated Fz8-CRD. From the text:
Fz27 was expressed in a construct enabling binding to be confirmed via yeast surface display using fluorescence-conjugated Fz8-CRD.

B1: uncharacterized protein Bh1478 from Bacillus halodurans (other)
chain: MDVQRVGKAGLHRVDSKKQQTAAGVSFSEVMGKQRDEKAYERLQALMSKIDDQGKLLSETRTIEELRKYKELVKEFVGDAVELGLRLEERRGFNRRGRTKIYKIVKEVDRKLLDLTDAVLAKEKKGLDILNMVGEIKGLLINIYA
notes: also called 2QUP; wild-type scaffold
For the molecule B1, the binding result is recorded as “no binding”.
